Data as given in ChEMBL document CHEMBL1124703, “Analogues of carbamyl aspartate as inhibitors of dihydroorotase: preparation of boronic acid transition-state analogues and a zinc chelator carbamylhomocysteine” (J Med Chem, 1990).
Each block holds one compound with its values, some of them ahead of it.

Key:
Conditions in all cases: Cricetulus griseus
NC(=O)NC(CC(=O)O)C(=O)O = test: Kinetic constant for the inactivation of Dihydroorotase (DHO) at pH 6.0
NC(=O)NC(CCS)C(=O)O = test: Kinetic constant for the inactivation against Dihydroorotase (DHO) at a concentration of 3 uM
[1] = molecular target: Multifunctional protein CAD (Homo sapiens) (UniProt P27708); test: Inhibitory activity against Dihydroorotase (DHO); no reproducible apparent Ki data
[2] = molecular target: Multifunctional protein CAD (Homo sapiens) (UniProt P27708); test: Inhibitory activity against Dihydroorotase (DHO) using CAD protein at concentrations >=6 mM; no inhibition was observed

Chain of Multifunctional protein CAD (Homo sapiens) (P27708 whole entry): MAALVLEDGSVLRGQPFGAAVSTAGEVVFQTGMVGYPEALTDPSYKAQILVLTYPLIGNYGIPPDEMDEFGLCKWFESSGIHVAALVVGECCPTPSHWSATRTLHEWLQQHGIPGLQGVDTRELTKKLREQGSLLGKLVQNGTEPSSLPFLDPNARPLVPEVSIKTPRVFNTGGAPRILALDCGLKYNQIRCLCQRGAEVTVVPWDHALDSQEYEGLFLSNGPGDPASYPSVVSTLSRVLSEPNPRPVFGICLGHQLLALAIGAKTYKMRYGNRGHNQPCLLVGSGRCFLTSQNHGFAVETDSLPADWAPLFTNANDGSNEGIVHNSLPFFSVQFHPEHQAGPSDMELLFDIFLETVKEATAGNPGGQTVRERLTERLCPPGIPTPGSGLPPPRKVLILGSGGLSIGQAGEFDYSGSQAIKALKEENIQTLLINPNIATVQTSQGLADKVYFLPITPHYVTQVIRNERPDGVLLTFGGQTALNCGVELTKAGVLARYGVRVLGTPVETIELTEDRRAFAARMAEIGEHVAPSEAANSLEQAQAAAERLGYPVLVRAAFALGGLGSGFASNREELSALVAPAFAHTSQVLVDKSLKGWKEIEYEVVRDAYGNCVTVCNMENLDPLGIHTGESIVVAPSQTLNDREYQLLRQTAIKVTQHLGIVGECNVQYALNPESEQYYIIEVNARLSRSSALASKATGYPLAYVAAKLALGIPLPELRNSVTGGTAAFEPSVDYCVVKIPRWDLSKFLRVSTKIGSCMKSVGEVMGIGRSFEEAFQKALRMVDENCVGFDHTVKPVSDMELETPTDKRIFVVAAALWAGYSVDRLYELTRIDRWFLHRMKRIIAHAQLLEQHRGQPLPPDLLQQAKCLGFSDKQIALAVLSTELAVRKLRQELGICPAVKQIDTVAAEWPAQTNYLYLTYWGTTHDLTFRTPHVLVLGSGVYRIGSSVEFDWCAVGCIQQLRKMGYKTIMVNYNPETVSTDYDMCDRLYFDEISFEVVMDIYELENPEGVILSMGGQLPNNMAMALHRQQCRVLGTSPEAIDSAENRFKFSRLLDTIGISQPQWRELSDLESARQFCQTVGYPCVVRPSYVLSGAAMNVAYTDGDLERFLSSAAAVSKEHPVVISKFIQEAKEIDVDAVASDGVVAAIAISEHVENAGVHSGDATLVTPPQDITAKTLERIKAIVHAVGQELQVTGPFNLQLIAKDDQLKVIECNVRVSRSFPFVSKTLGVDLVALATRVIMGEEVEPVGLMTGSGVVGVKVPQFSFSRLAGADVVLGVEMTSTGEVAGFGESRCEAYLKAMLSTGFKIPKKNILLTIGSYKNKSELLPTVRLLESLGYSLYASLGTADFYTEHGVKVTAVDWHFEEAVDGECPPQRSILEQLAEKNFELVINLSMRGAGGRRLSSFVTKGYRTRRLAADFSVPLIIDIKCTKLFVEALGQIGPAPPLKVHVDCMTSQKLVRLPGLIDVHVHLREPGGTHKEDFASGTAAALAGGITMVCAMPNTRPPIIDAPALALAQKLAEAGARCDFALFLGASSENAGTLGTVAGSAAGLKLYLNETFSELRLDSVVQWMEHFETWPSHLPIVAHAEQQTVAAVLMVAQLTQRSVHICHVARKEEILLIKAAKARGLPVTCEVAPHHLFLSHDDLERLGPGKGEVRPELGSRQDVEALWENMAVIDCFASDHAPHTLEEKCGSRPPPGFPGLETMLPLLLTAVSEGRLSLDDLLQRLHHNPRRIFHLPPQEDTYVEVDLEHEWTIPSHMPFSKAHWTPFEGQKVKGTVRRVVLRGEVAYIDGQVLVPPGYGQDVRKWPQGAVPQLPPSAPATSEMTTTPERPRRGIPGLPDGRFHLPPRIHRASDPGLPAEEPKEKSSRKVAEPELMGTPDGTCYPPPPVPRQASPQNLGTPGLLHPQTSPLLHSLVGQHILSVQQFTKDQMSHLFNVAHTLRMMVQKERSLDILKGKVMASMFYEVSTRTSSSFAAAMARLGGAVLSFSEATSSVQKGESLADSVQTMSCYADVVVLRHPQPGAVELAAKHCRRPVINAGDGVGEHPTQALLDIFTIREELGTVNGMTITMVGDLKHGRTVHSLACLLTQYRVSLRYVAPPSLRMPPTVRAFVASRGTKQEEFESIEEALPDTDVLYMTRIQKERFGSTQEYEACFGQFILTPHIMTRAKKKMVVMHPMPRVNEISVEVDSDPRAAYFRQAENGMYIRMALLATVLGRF

Compound: Multifunctional protein CAD (Homo sapiens), P27708
Km (NC(=O)NC(CC(=O)O)C(=O)O): 50 µM | kinact (NC(=O)NC(CCS)C(=O)O): 460000 min⁻¹

inhibition [1]: no reproducible apparent Ki data
Compound: COC(=O)C(CB(O)O)NC(N)=O (centres undefined)

inhibition [2]: No inhibition
Compound: NC(=O)NC(CB(O)O)C(=O)O (centres undefined)
